# B1: Jouberin (Homo sapiens), Q8N157 (parent)
# chain: MPTAESEAKVKTKVRFEELLKTHSDLMREKKKLKKKLVRSEENISPDTIRSNLHYMKETTSDDPDTIRSNLPHIKETTSDDVSAANTNNLKKSTRVTKNKLRNTQLATENPNGDASVEEDKQGKPNKKVIKTVPQLTTQDLKPETPENKVDSTHQKTHTKPQPGVDHQKSEKANEGREETDLEEDEELMQAYQCHVTEEMAKEIKRKIRKKLKEQLTYFPSDTLFHDDKLSSEKRKKKKEVPVFSKAETSTLTISGDTVEGEQKKESSVRSVSSDSHQDDEISSMEQSTEDSMQDDTKPKPKKTKKKTKAVADNNEDVDGDGVHEITSRDSPVYPKCLLDDDLVLGVYIHRTDRLKSDFMISHPMVKIHVVDEHTGQYVKKDDSGRPVSSYYEKENVDYILPIMTQPYDFKQLKSRLPEWEEQIVFNENFPYLLRGSDESPKVILFFEILDFLSVDEIKNNSEVQNQECGFRKIAWAFLKLLGANGNANINSKLRLQLYYPPTKPRSPLSVVEAFEWWSKCPRNHYPSTLYVTVRGLKVPDCIKPSYRSMMALQEEKGKPVHCERHHESSSVDTEPGLEESKEVIKWKRLPGQACRIPNKHLFSLNAGERGCFCLDFSHNGRILAAACASRDGYPIILYEIPSGRFMRELCGHLNIIYDLSWSKDDHYILTSSSDGTARIWKNEINNTNTFRVLPHPSFVYTAKFHPAVRELVVTGCYDSMIRIWKVEMREDSAILVRQFDVHKSFINSLCFDTEGHHMYSGDCTGVIVVWNTYVKINDLEHSVHHWTINKEIKETEFKGIPISYLEIHPNGKRLLIHTKDSTLRIMDLRILVARKFVGAANYREKIHSTLTPCGTFLFAGSEDGIVYVWNPETGEQVAMYSDLPFKSPIRDISYHPFENMVAFCAFGQNEPILLYIYDFHVAQQEAEMFKRYNGTFPLPGIHQSQDALCTCPKLPHQGSFQIDEFVHTESSSTKMQLVKQRLETVTEVIRSCAAKVNKNLSFTSPPAVSSQQSKLKQSNMLTAQEILHQFGFTQTGIISIERKPCNHQVDTAPTVVALYDYTANRSDELTIHRGDIIRVFFKDNEDWWYGSIGKGQEGYFPANHVASETLYQELPPEIKERSPPLSPEEKTKIEKSPAPQKQSINKNKSQDFRLGSESMTHSEMRKEQSHEDQGHIMDTRMRKNKQAGRKVTLIE
# B2: Jouberin (Homo sapiens), Q8N157 (parent)
# chain: B1 chain
# partner: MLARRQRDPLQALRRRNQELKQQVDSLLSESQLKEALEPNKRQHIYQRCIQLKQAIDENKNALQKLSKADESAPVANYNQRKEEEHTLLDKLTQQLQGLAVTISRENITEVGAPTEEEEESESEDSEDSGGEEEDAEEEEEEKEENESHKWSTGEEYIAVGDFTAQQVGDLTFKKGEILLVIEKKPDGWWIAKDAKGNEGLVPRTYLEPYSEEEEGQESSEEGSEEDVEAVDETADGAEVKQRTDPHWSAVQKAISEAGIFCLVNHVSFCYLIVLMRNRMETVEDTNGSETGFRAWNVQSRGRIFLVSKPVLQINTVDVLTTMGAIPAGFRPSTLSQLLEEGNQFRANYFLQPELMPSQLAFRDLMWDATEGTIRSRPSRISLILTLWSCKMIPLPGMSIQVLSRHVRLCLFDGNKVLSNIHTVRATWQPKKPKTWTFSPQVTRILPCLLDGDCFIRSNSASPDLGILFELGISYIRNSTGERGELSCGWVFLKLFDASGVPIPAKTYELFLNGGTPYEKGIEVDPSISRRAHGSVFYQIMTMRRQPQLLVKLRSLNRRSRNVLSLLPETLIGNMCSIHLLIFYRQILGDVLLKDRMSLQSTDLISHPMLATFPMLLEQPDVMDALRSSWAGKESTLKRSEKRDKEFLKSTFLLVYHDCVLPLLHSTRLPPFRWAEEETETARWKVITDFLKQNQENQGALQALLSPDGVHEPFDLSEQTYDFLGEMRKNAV
# Variants of: B1
# Settings: with hap1_human HAP1, P54257
# Sequence of hap1_human HAP1, P54257 (P54257 whole entry): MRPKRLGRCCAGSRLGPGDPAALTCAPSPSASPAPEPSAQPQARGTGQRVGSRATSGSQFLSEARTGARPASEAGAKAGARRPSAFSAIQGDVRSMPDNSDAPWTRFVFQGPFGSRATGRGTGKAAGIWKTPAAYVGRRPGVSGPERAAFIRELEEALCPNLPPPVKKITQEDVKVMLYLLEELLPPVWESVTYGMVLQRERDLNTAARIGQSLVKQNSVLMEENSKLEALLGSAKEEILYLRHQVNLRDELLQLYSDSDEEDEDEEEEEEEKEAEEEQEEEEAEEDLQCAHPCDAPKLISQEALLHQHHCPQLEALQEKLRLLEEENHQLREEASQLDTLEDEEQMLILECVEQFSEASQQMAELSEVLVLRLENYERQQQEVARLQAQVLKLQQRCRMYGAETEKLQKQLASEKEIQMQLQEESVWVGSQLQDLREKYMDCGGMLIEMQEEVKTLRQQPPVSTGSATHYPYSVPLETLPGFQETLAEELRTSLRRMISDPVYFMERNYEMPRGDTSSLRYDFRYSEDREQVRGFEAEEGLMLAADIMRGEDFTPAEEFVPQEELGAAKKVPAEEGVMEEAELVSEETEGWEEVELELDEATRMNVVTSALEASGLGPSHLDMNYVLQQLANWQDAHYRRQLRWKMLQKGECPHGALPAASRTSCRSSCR
row,effect of a mutation on the interaction,Variant
1,decreasing interaction,V443D

# Variants of: B2
# Settings: with nphp1_human NPHP1, O15259
row,effect of a mutation on the interaction,Variant
1,disrupting interaction,V443D

# Source: IntAct's records for PubMed 23532844
